From paper PMC3547953

Biological target: tumor necrosis factor-alpha (TNF-α) (UniProt P01375)
Chain of UniProt P01375 (P01375 77-233): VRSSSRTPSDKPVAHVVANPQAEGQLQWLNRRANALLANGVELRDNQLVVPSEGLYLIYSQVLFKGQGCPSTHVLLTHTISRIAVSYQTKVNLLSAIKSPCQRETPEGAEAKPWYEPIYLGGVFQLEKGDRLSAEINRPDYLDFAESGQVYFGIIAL

Substance: anti-TNF-α antibody (ENBREL), a chimeric molecule combining the ligand-binding domain of the TNF-receptor 2 and the Fc-domain of human IgG1 (Fc fusion)
- apoptosis (TUNEL, DNA strand breaks) of uninfected monocytes induced by added TNF-α, with anti-TNF-α mAb (ENBREL, 1 µg/ml): 50%
